Measured values taken from patent US20190185562A1 (Regeneron, published 2019).

Experiments:
[1] = target: T1, human gp130 expressed endogenously on IMR-32/Stat3-luc cells (human, UniProt P40189 23-918); experiment: FACS, 10 nM mAb, IMR-32/Stat3-luc cells, no hGP130.mmh
T1 construct: whole, on cells
T1 sequence (looked up): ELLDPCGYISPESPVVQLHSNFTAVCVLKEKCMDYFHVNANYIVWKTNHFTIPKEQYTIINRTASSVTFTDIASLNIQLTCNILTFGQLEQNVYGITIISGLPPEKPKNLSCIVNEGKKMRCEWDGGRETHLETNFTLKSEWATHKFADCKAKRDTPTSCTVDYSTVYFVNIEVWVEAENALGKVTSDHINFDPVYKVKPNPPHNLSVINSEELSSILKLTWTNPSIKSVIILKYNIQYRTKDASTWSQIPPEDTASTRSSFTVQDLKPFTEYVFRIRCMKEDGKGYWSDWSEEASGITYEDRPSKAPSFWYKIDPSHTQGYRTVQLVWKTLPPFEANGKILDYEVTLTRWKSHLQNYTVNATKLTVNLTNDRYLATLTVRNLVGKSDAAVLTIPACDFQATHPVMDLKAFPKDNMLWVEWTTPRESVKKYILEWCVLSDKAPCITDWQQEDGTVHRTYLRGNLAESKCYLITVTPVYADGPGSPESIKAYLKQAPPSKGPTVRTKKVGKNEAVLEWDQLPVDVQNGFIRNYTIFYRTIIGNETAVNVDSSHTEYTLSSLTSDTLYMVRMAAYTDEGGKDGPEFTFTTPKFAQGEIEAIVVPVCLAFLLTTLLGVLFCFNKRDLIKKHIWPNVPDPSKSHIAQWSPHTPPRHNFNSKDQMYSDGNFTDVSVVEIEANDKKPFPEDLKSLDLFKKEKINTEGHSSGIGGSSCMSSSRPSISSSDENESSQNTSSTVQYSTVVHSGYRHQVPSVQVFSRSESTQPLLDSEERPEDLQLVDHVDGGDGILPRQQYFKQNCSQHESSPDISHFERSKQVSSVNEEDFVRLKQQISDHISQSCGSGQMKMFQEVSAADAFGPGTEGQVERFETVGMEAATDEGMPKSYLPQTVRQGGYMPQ
Source text: (§1) In order to assess cell binding by anti-GP130 antibodies of the invention two cell lines were generated. One cell line generated was HEK293 cells stably over-expressing full length (FL) human gp130 (amino acids 1-918 of accession # P40189 with leucine at position 2 changed to valine, a natural variant) along with a luciferase reporter (Stat3-luciferase, Stat3-luc, SA Bioscience, #CLS-6028L). The cells were sorted twice using flow cytometry for high expression of gp130. It is known hereafter as HEK293/Stat3-luc/gp130-2X Sort. IMR-32 cells (human Neuroblastoma, ATCC), were also evaluated for cell binding as these cells express gp130 endogenously and were used for bioassays. The cells used for binding were generated to stably express a luciferase reporter (Stat3-luciferase, Stat3-luc, SA Bioscience, #CLS-6028L), and are referred to hereafter as IMR-32/STAT3-Luc cells.
(§2) For the FACS analysis, 10 nM of the antibodies were used to stain 0.5×10^6 cells/well of each cell type at 4° C. in PBS (without calcium and magnesium) containing 2% FBS for 30 minutes. IMR-32/STAT3-luc cells were incubated with 1 mg/mL mouse IgG for 30 minutes at 4° C. to block Fc receptors prior to adding the antibodies. To test whether the anti-gp130 antibody binding is specific for gp130 on the IMR-32 cells, antibodies were added to IMR-32/Stat3-luc cells with or without being pre-bound to 1000 nM of recombinant protein of the ecto-domain of human gp130 fused to myc-myc-his tag (hgp130.mmh) for 30 minutes at 25° C. […] Cells were fixed using BD CytoFix™ (Becton Dickinson, #554655) and analyzed on an IQue® (Intellicyt®) Flow Cytometer. Unstained and secondary antibody alone controls were also tested for all cell lines. The results were analyzed using ForeCyt® (IntelliCyt®) software to determine the geometric means of fluorescence for viable cells.

[2] = target: T2, full length (FL) human gp130 over-expressed on HEK293/Stat3-luc/gp130-2X Sort cells (human, UniProt P40189 23-918); experiment: FACS, 10 nM mAb, 293/Stat3-luc/GP130 2X sort cells
T2 construct: whole, on cells
T2 sequence (looked up): T1 sequence (looked up)
Source text: as §1, §2

[3] = target: T1, human gp130 expressed endogenously on …; experiment: FACS, 10 nM mAb, IMR-32/Stat3-luc cells, competitor 1 uM hGP130.mmh
Source text: as §1, §2

[4] = target: T3, human gp130 extracellular domain with the Fc portion of mouse IgG2a at the C-terminus (human); experiment: blocking ELISA, 2.5 nM hGP130-mFc to plate-bound CNTFR/CNTF complex; * below the lower limit of quantitation of 1.25E-09 M
T3 construct: Dimeric; also called hGP130-mFc; dimeric GP130 protein
T3 chain: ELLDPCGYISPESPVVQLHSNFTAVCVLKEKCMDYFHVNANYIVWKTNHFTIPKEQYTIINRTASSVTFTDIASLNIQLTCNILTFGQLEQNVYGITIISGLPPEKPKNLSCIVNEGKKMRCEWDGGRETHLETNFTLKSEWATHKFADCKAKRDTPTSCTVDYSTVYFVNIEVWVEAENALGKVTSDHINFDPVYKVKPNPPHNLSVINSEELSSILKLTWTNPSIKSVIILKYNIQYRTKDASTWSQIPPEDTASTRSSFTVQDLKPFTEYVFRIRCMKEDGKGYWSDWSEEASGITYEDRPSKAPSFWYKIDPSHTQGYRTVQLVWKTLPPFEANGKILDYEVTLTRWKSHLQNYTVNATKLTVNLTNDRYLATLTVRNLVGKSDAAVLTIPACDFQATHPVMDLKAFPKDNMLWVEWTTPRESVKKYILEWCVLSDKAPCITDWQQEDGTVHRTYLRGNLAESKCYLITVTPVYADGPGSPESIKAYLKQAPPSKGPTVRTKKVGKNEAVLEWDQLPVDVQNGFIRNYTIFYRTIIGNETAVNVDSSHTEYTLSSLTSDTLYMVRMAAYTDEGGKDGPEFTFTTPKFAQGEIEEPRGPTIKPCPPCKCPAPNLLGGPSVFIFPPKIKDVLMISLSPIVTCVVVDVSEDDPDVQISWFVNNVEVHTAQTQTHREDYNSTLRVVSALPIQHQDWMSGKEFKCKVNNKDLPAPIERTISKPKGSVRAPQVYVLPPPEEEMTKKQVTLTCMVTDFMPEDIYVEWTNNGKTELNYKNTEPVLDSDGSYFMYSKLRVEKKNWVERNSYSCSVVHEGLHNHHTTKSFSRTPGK
Procedure: The experiment was carried out using the following procedure. Human CNTFRα was coated at a concentration of […] in HBSS on a 96-well microtiter plate overnight at 4° C. […] Human CNTF at a concentration of 1 μg/ml in HBSS was added to the plate bound CNTFRα for 1 hour at room temperature. In separate dilution plates, a constant amount of 2.5 nM of human GP130-mFc protein was titrated with antibodies ranging from 3.4 pM to 200 nM in serial dilution and with no antibody present. These solutions were incubated for 1 hour at room temperature (RT) and subsequently transferred to the microtiter plates with CNTFRα/CNTF complex without washing. The plates were incubated for 2 hours at RT, washed with PBST buffer, and plate-bound hGP130-mFc was detected with an anti-mFc polyclonal antibody conjugated with horseradish peroxidase (HRP) (Jackson ImmunoResearch Inc). Samples were developed with a TMB solution (BD Biosciences, substrate A and B mixed at 1:1 ratio as per manufacturer's instructions) to produce a colorimetric reaction and then neutralized with 1M sulfuric acid before measuring absorbance at 450 nm on a Victor ×5 plate reader.

B1: MAb16666 (antibody, V domains shown)
VH: EVQLVESGGGLVQSGGSLRLSCAASGFTFSRYEMNWVRQAPGKGLEWVAYISNTGTTRDYSDSVKGRFTISRDNAKNSLYLQMSSLRVEDTAVYYCVREKFSGTSDWFDPWGQGTLVTVSS
VL: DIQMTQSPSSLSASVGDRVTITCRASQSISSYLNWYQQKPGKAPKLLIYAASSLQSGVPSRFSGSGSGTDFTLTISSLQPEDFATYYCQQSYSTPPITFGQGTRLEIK
notes: Variable domains only
- MFI - Normalized to Unstained Control [1]: 23
- MFI - Normalized to Unstained Control [2]: 159
- MFI - Normalized to Unstained Control [3]: 8
- IC50 [4]: < 1.25 nM
